Target: the molecule itself
Assay: negative-stain transmission electron microscopy with class sums; purified, detergent-solubilized PfFNT (yeast-produced in DM, cell-free in Brij 78); uranyl acetate stain; reference-free alignment without any symmetry imposed

Row | Protein | stoichiometry N
1 | Plasmodium falciparum lactate transporter PfFNT, produced in Pichia pastoris yeast (natural protein, UniProt O77389 1-309, looked up, PfFNT, lactate transporter (formate-nitrite transporter family) of Plasmodium falciparum; monomer printed as 30 kDa, pentamer 150 kDa; Homopentamer; also called cell-based PfFNT; yeast-produced PfFNT; source: P. pastoris (PichiaPink), fermenter culture; membranes solubilized with LDAO, purified (Ni-NTA, size exclusion) in DM; not shown: His10, C-terminal, kept) MPPNNSKYVLDPVSIKSVCGGEESYIRCVEYGKKKAHYSNLNLLAKAILAGMFVGLCAHASGIAGGLFYYHKLREIVGASMSVFVYGFTFPIAFMCIICTGSDLFTGNTLAVTMALYEKKVKLLDYLRVMTISLFGNYVGAVSFAFFVSYLSGAFTNVHAVEKNHFFQFLNDIAEKKVHHTFVECVSLAVGCNIFVCLAVYFVLTLKDGAGYVFSVFFAVYAFAIAGYEHIIANIYTLNIALMVNTKITVYQAYIKNLLPTLLGNYIAGAIVLGLPLYFIYKEHYYNFERSKRDNNDAQMKSLSIELRN | 5
2 | Plasmodium falciparum lactate transporter PfFNT, produced cell-free in an E. coli S30 extract (natural protein, UniProt O77389 1-309, looked up, PfFNT, lactate transporter (formate-nitrite transporter family) of Plasmodium falciparum; codon-optimized open reading frame in pIVEX2.3; monomer printed as 30 kDa, pentamer 150 kDa; Homopentamer; A factor Xa digestion site lies between PfFNT and the C-terminal His10-tag; no cleavage is reported; also called cell-free PfFNT; cell-free produced PfFNT; source: E. coli S30 extract cell-free system …) MPPNNSKYVLDPVSIKSVCGGEESYIRCVEYGKKKAHYSNLNLLAKAILAGMFVGLCAHASGIAGGLFYYHKLREIVGASMSVFVYGFTFPIAFMCIICTGSDLFTGNTLAVTMALYEKKVKLLDYLRVMTISLFGNYVGAVSFAFFVSYLSGAFTNVHAVEKNHFFQFLNDIAEKKVHHTFVECVSLAVGCNIFVCLAVYFVLTLKDGAGYVFSVFFAVYAFAIAGYEHIIANIYTLNIALMVNTKITVYQAYIKNLLPTLLGNYIAGAIVLGLPLYFIYKEHYYNFERSKRDNNDAQMKSLSIELRN | 5
